Here are results for two proteins from patent publication US11542480B2.

Substrate in data set [1]: NCC(=O)O
The data set is described as follows: purified protein, by the assay type. The data set is classed as biochemical, Geobacillus kaustophilus HTA426. The settings on record: other: substrate glycine, 37° C., pyrophosphate, pH 8.5, WT-GOX, 60.0 °C. From the text: HTA426 is available, for example, from the National Research and Development Agency, RIKEN BioResource Research Center (RIKEN BRC) Microbe Division (JCM) (JCM12893).
However, a plasmid vector of pET-15b was used as a vector, and E. coli BL21 (DE3) was used as a host cell (host).
For convenience of explanation, the wild-type glycine oxidase is abbreviated as “WT-GOX”.

Substrate in data set [2]: NCC(=O)O
The data set is described as follows: purified protein, by the assay type. In kind it is biochemical, Geobacillus kaustophilus HTA426. The following applies: other: substrate glycine, 37° C., pyrophosphate, pH 8.5, purified V-GOX1, 70.0 °C. The method, then: For convenience of explanation, the mutant glycine oxidase is abbreviated as “V-GOX” in this example.
The enzyme activity in Table 2 is shown as the ratio (times) of the enzyme reaction rate (use of crude enzyme solution) of V-GOX when WT-GOX is used as reference (1).
Therefore, after purifying this V-GOX1, the molecular weight (SDS-PAGE), the optimum temperature, the optimum pH, thermal stability, pH stability, the specific activity, and the kinetic constant Km were evaluated. The results of the specific activity, thermal stability, and the kinetic constant Km are shown in Table 1 above, the specific activity is shown in FIG. 3A, and thermal stability is shown in FIG. 3B, and further, evaluation results of enzyme properties of V-GOX1 containing them are also shown in Table 3 together with the conditions.

B1: Geobacillus kaustophilus HTA426 wild-type glycine oxidase (WT-GOX), SEQ ID NO: 1 (Geobacillus kaustophilus HTA426) (protein)
chain: MTHRYDVAIVGGGVIGAAIGFELAKRRHRVAIFEKGTMGSGASSAAAGMLGAQSEFSTSSPLVPLALQSRALMPALAEELRERTGIDIGLVEKGLIKLATTEEEADDLYRHYTFWRGIGEPVQWLTKGEALEMEPRLAAEALAGAMYIPGDGQVSAPDLAAALAYAAASAGACLYEYTEVFDIRSDSSGHVLDTTGGTFAAEAVVIASGAWAARLGARVGLSLSVYPVKGECVMVRAPVPLLQTTVFAKNGCYIVPKSGNRLLIGATSTPGTFDRRVSAGGVMNLLHRAAHLVPDIEQAEWVASWSGIRPQTEDGLPYLGEHPERRGLFVAAGHYRNGILLSPLTGLLVADLVERKETAFDLAPFSLTRHIGKVGVE
Turning to B1, the Km in data set [1] is recorded as 0.25 mM mM.

B2: Geobacillus kaustophilus HTA426 glycine oxidase variant V-GOX1, 251st glycine of SEQ ID NO: 1 substituted with glutamine (Gly251Gln; SEQ ID NO: 3 with Xaa251 = … (protein)
chain: MTHRYDVAIVGGGVIGAAIGFELAKRRHRVAIFEKGTMGSGASSAAAGMLGAQSEFSTSSPLVPLALQSRALMPALAEELRERTGIDIGLVEKGLIKLATTEEEADDLYRHYTFWRGIGEPVQWLTKGEALEMEPRLAAEALAGAMYIPGDGQVSAPDLAAALAYAAASAGACLYEYTEVFDIRSDSSGHVLDTTGGTFAAEAVVIASGAWAARLGARVGLSLSVYPVKGECVMVRAPVPLLQTTVFAKNQCYIVPKSGNRLLIGATSTPGTFDRRVSAGGVMNLLHRAAHLVPDIEQAEWVASWSGIRPQTEDGLPYLGEHPERRGLFVAAGHYRNGILLSPLTGLLVADLVERKETAFDLAPFSLTRHIGKVGVE
With B2, in data set [2], the Km is reported as 0.20 mM mM.
